Results reported in patent publication US20240109958.

B1: wild-type UCHL5 (UCHL5^WT), C-terminal 6-His tag (protein)
chain: MTGNAGEWCLMESDPGVFTELIKGFGCRGAQVEEIWSLEPENFEKLKPVHGLIFLFKWQPGEEPAGSVVQDSRLDTIFFAKQVINNACATQAIVSVLLNCTHQDVHLGETLSEFKEFSQSFDAAMKGLALSNSDVIRQVHNSFARQQMFEFDTKTSAKEEDAFHFVSYVPVNGRLYELDGLREGPIDLGACNQDDWISAVRPVIEKRIQKYSEGEIRFNLMAIVSDRKMIYEQKIAELQRQLAEEEPMDTDQGNSMLSAIQSEVAKNQMLIEEEVQKLKRYKIENIRRKHNYLPFIMELLKTLAEHQQLIPLVEKAKEKQNAKKAQETKHHHHHH
B2: wild-type UCHL1 (UCHL1^WT), C-terminal 6-His tag (protein)
chain: MQLKPMEINPEMLNKVLSRLGVAGQWRFVDVLGLEEESLGSVPAPACALLLLFPLTAQHENFRKKQIEELKGQEVSPKVYFMKQTIGNSCGTIGLIHAVANNQDKLGFEDGSVLKQFLSETEKMSPEDRAKCFEKNEAIQAAHDAVAQEGQCRVDDKVNFHFILFNNVDGHLYELDGRMPFPVNHGASSEDTLLKDAAKVCREFTEREQGEVRFSAVALCHHHHHH

Target: Ub vinyl sulfone HA-tagged probe (Ub-VS-HA; Cat #U-212, Boston Biochem), P0CG48
Sequence (P0CG48 whole entry, looked up): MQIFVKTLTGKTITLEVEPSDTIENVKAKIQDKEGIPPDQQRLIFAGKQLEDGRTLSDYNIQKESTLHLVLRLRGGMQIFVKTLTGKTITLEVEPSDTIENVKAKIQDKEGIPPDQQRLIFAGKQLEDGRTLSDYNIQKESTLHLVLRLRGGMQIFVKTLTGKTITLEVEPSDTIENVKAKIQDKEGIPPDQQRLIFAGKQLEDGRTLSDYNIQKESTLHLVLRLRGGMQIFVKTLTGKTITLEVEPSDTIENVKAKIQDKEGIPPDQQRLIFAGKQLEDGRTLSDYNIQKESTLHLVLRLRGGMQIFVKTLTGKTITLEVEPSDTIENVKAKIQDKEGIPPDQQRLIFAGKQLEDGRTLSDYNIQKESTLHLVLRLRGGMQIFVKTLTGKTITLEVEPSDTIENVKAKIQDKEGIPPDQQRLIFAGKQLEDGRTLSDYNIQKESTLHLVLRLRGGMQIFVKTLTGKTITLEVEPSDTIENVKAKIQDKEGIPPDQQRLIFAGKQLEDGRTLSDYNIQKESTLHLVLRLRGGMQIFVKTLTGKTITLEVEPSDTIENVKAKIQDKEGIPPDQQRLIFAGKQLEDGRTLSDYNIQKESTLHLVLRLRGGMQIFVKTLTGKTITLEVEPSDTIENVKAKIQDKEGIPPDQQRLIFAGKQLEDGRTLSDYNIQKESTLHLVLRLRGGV

Protein	modification by the suicide probe Ub-VS (immunoblot)
B1	UCHL5^WT was only partially modified at 30 minutes
B2	UCHL1^WT readily reacted with Ub-VS, nearing completion after 30 minutes
